# In publication PMC5501728:
# How the values were obtained:
# [1] = biological target: PGAM5 residues 81–289 (human) (UniProt Q96HS1); test: AUC; sedimentation velocity, 4°C, 45,000 rpm, protein 50-60 μM in 50 mM Tris pH 7.5, 300 mM NaCl, 0.5 mM TCEP
# [2] = biological target: ΔN54-PGAM5, His6 tag cleaved (human) (UniProt Q96HS1); test: crystal structure; ΔN54-PGAM5-phosphate complex; sitting drop, 20°C, 18% PEG 3350, 0.1 M MES pH 5.7
# [3] = biological target: ΔN90-PGAM5 (residues 90–289), His6 tag cleaved (human) (UniProt Q96HS1); test: AUC; sedimentation velocity, 4°C, 45,000 rpm, protein 50-60 μM in 50 mM Tris pH 7.5, 300 mM NaCl, 0.5 mM TCEP
# [4] = biological target: ΔN90-PGAM5 (residues 90–289), His6 tag cleaved (human) (UniProt Q96HS1); test: crystal structure; ΔN90-PGAM5 apo and phosphate complex; sitting drop, 20°C, PEG 3350 and 5000 MME 12-20%, 0.1 M HEPES pH 7.5
# [5] = biological target: ΔN90-PGAM5 (residues 90–289), His6 tag cleaved (human) (UniProt Q96HS1); test: AUC; sedimentation equilibrium, dimer to monomers (self-association model, global fit); 0.7, 0.46 and 0.35 mg/ml in 50 mM HEPES pH 7.5, 300 mM NaCl, 0.5 mM TCEP; 12,000 and 18,000 rpm
# [6] = biological target: ΔN90-PGAM5, His6 tag not cleaved (for analytical SEC) (human) (UniProt Q96HS1); test: SEC; Superdex Increase s200 10/300 GL, 50 mM Tris pH 7.5, 200 mM NaCl; His-tagged proteins at several concentrations
substance,measurement,setting,value
PGAM5 residues 81–289 (from UniProt Q96HS1 81-289) (domain or fragment),stoichiometry N,[1],2
"ΔN54-PGAM5, His6 tag cleaved (from UniProt Q96HS1 54-289) (domain or fragment)",stoichiometry N,[2],12
"ΔN90-PGAM5 (residues 90–289), His6 tag cleaved (from UniProt Q96HS1 90-289) (domain or fragment)",stoichiometry N,[3],2
same,stoichiometry N,[4],2
same,Kd,[5],480 nM
"ΔN90-PGAM5, His6 tag not cleaved (for analytical SEC) (from UniProt Q96HS1 90-289) (domain or fragment)",stoichiometry N,[6],2
